Data as given in the supplement of paper PMC9170038.

System: MS2 coat protein
Assay: apparent KD of MS2 coat protein; designed switch direction (-1 OFF switch, 1 ON switch): -1; higher = weaker reporter binding
Outline: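 Stalled E. coli RNA polymerase transcribed designed RNA switches on Illumina chips, which were then titrated with SNAP-549-labelled MS2 coat protein, doubling from 0.7 or 1.5 nM to 3 µM. Steps lasted from 0.8–1.5 h at the lowest concentration to 10–20 min at the highest. The apparent KD is each design's median over clusters of curve-fitted normalised fluorescence.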

[1] = Eterna round: R95, input ligand: microRNA oligo, concentration not stated
[2] = input ligand: microRNA oligo, concentration not stated
[3] = Eterna round: R95, input ligand: FMN 200 uM
[4] = Eterna round: R95, input ligand: none

| Sequence | apparent KD of MS2 coat protein [1] | apparent KD of MS2 coat protein (input ligand: FMN 200 uM) | apparent KD of MS2 coat protein (input ligand: none) | apparent KD of MS2 coat protein [2] | apparent KD of MS2 coat protein [3] | apparent KD of MS2 coat protein [4] |
| --- | --- | --- | --- | --- | --- | --- |
| GUUGCGUUUGUGAGGAUAUGCUGGUCCUUGGUUCGGCAGAAGGCACAUGAGGAUCACCCAUGUGGUGUCGUUCC [salish99_Bmod_ex4_051] (puzzle: Brourd's mod of Exclusion 4) | 13.3 nM |  |  |  |  |  |
| GGCCUUCCGCGAGCUUUUUACAUGAGGAUCACCCAUGUGGUUUUUAGUCUUAUCCCGGGCCCGGUGUCGGGCCCGGG [-32.9, -53.8, A 12%] (Eterna round: R97, puzzle: Sensor, turn-off variant 1) |  | 29.8 nM | 30.2 nM |  |  |  |
| CUAAAUCAUGUAGGAUAUGCGUGGCAAAGCUAUGCAGAAGGACAUGAGGAUCACCCAUGUCAUUCCGUCUGGGAACAGACGGGA [Mat - Exclusion NG 1 - Mod of JL - D52] (Eterna round: R96, puzzle: Exclusion NG 1) |  | 158 nM | 24.5 nM | 17.5 nM |  |  |
| UCUCGACAUGAGGAUCACCCAUGUCAGGAUAUUGUAUUAGAGGUUUUUUACCUUAUAACAAGAAGGGAUGUGUG [LRO-Excl1-23] (puzzle: Exclusion 1) | 23.6 nM |  |  |  |  |  |
| AAUAAGUGAGGAUAUCCAAUAAUAAAUAAAAUAAUAAAUAAGGAGAAGGCACAUGAGGAUCACCCAUGUAAUAA [JMF's solution 2] (puzzle: Exclusion 4) | 14.8 nM |  |  |  | 19 nM | 15.7 nM |
| AAAUAGAAUGAGGAUAUCGUAUUGUAUUUAGUGCGAGAAGGCAUUACAUGAGGAUCACCCAUGUUUUGUUGGGA [JR_Ex6_Sub003] (Eterna round: R97, puzzle: Exclusion 6) |  | 89.1 nM | 32.3 nM |  |  |  |
| AAUAACAAGCUGAUCCUAAACAUGAGGAUCACCCAUGUGUUCGUCUUGUAAAGUACUAUCACGAAAGUGAUAGUACA (Eterna round: R97, puzzle: Sensor, turn-off variant 1) |  | 75.2 nM | 80 nM |  |  |  |
| ACUGGAGCAGGAUAUACAUAACGUGCUUCGGCACGAGAUCUACAUGAGGAUCACCCAUGUAGAAGGGCUCCAGU [E2/10-D1] (Eterna round: R97, puzzle: Exclusion 2) |  | 28.3 nM | 13.3 nM |  |  |  |
| GGCAAACAUGAGGAUCACCCAUGUCAGGAUAUUAGGCGAUCGUCGAAAGACGAUAGCCUGAGAAGGGACAUGCC [Eli x1 4.16] (Eterna round: R97, puzzle: Exclusion 1) |  | 238 nM | 103 nM |  |  |  |
| GCUGGUGUGCAGGAUAUUUAAUUGCAAAUAAAUAAAGAAGGGCAUACAUGAGGAUCACCCAUGUCGUCGUUGCG [Eternabot (L1) Solution 98] (Eterna round: R97, puzzle: Exclusion 6) |  | 39.2 nM | 32.7 nM |  |  |  |
| UAUAUAUAGUAAGGAUAUGUAUAUAGUUUAUAAACAGAAGGUACUGACAUGAGGAUCACCCAUGUUUUAGUGUGGGCAUGUAGA [JMF's solution 56] (Eterna round: R96, puzzle: Exclusion NG 1) |  |  |  | 61.3 nM |  |  |
| CUUCACCCACCAGAGCUCACCCACAUACCUGCUCAGGUGACAUGAGGAUCACCCAUGUUUUUUGCCCGUCUUAUCUU [Atquertebi] (puzzle: Sensor v3, turn-off variant 2) | 181 nM |  |  |  | 33.1 nM | 34.3 nM |
| UCAUGUAUGUAGGAUAUCGAUGUCUGCGGACAUCGAGAAGGACGUACAUGAGGAUCACCCAUGUAACUUGCAUG [Exclusion 6 - B - 11:e] (puzzle: Exclusion 6) | 17.8 nM |  |  |  | 31.9 nM | 13.1 nM |
| AAAUAAUAGAUAAAAUAAAACAUGAGGAUCACCCAUGUGGGAUGUUGAGGGUGAUACAAGCUUUUUGCUCGUCUUAU (puzzle: Sensor v3, turn-off variant 1) | 45.6 nM |  |  |  | 233 nM | 271 nM |
| UGUCAGUCAGGAUAUGCAUACGUAGACAUGAGGAUCACCCAUGUGACGUGGGACUGGUGUGUAGAAGGGACGAACA [EX5 #79] (Eterna round: R97, puzzle: Exclusion 5) |  | 29.8 nM | 28.6 nM |  |  |  |
| ACAUGAGGAUCACCCAUGUGAACAUGAUGGCUGAUGUAGAGCUAGGAUAUGAGUGAAUAUCUAUCUCAGAAGGAGCUUGACUGG [Deportation 47 - Jieux - Exclusion NG 3] (Eterna round: R96, puzzle: Exclusion NG 3) |  | 34.1 nM | 23.2 nM | 14.1 nM |  |  |
| UCUAGCUUUUUGCGUCAAGCAUUGAAGUCUGUGAUCGUUACAUGAGGAUCACCCAUGUAUGUUUUAUGUCGUCUUGU [JR_SV3TOV2_Sub099] (puzzle: Sensor v3, turn-off variant 2) | 33.1 nM |  |  |  | 37.2 nM | 43.9 nM |
| GGAUAAAAGUCAGGAUAUACGUAUCGCUAGCGAGUAGAAGGGACACAUGAGGAUCACCCAUGUGAGUUCUCAAUAAGAAACACG [Prohibition 61 - Jieux - Exclusion NG 1] (Eterna round: R96, puzzle: Exclusion NG 1) |  | 45.5 nM | 19.5 nM | 16.3 nM |  |  |

| Sequence | apparent KD of MS2 coat protein [1] | apparent KD of MS2 coat protein (input ligand: FMN 200 uM) | apparent KD of MS2 coat protein (input ligand: none) | apparent KD of MS2 coat protein [2] | apparent KD of MS2 coat protein [3] | apparent KD of MS2 coat protein [4] |
| --- | --- | --- | --- | --- | --- | --- |
| CCGAAUAUGCAGGAUAUCGUAUCGGAAACGAUACGAGAAGGGUAAACAUGAGGAUCACCCAUGUUCCUUAACGG [Fiskers Ex 6 - 18] (puzzle: Exclusion 6) | 17.7 nM |  |  |  |  |  |
| UAAUAACAAGCGAGAUCCUACAUGAGGAUCACCCAUGUGCUCGUCUUAUAAAGUACUAUCACGAAAGUGAUAGUACA [Mat - Sensor v3 - turn-off var 1 - Eli Mod - D61] (puzzle: Sensor v3, turn-off variant 1) | 49.5 nM |  |  |  | 17.1 nM | 19.2 nM |
| GGAAUACAUGAGGAUCACCCAUGUAAGGAUAUGCUGAAUAUUACGGAAUAAACGUGCAGCAGAAGGUACAAAGG [Mat - Mod of my Eli Mod D47] (puzzle: Exclusion 1) | 83.4 nM |  |  |  | 105 nM | 125 nM |
| AACUGACAUGAGGAUCACCCAUGUCAGGAUAUGCUUCAUAAAAACAAACAAAAAUGAUGCAGAAGGGACAUGGA [Design 30 :P Sub-opt 6] (Eterna round: R96, puzzle: Exclusion 1) |  |  |  | 14.3 nM |  |  |
| UAUUACCUAGGAUAUACAUGAGGAUCACCCAUGUCACGGGUCAACUUGUCCUAUGCGUGUAGAAGGAGGGACCC [JL Ceriza mod 6] (puzzle: Exclusion 3) | 18.9 nM |  |  |  |  |  |
| CAGUACUGAGGAUAUACAUGAGGAUCACCCAUGUGUUCCAGCUAGGAUACUAGCAAAAGUAGAAGGCAGUACUG [salish99_ex3_r3_095x] (Eterna round: R96, puzzle: Exclusion 3) |  |  |  | 20.9 nM |  |  |
| ACAAGCUUUUUGUUCGUCUUAUAAUAUUCAAUAAGGAUAACAUGAGGAUCACCCAUGUAACAAAGACGGACUCAUGU [Sesor Array 15 - Jieux - Sensor v3, turn-off variant 2] (puzzle: Sensor v3, turn-off variant 2) | 133 nM |  |  |  | 17.2 nM | 13 nM |
| GUCAGCUCGUCAGGAUAUACAUCACUGCUUCGGCAGUGUAUUAAGAUCACAUGAGGAUCACCCAUGUAGAAGGGACGAGCUGAU [ENG2/2-B2] (Eterna round: R96, puzzle: Exclusion NG 2) |  | 322 nM | 25.8 nM | 18.4 nM |  |  |
| CCCUCACAUGAGGAUCACCCAUGUCAGGAUAUCUCACAUCGGCCUUAGGCCAAUGUCAAGAGAAGGGACGUAUC [Usanvequin] (puzzle: Exclusion 1) | 21.7 nM |  |  |  |  |  |
| GAUUAUGCGAGCUUUAGGGACAUGAGGAUCACCCAUGUUCGUCUUAUUAGUCUAAAUGCACUGACAUACCUAAAUCU [JMF 73] (puzzle: Sensor v3, turn-off variant 1) | 15.3 nM |  |  |  | 12.9 nM | 13.9 nM |
| GUGUGACAUGAGGAUCACCCAUGUGAGGAUAUCAUGCUUCGUAGUAAACUACGAAGUGUGAGAAGGCACAUAAC [Omei Ex1 E8] (Eterna round: R97, puzzle: Exclusion 1) |  | 678 nM | 122 nM |  |  |  |
| CCGGAAAUGAAGGAUAUAGGUGUCGAUAGACACCUAGAAGGUCAUACAUGAGGAUCACCCAUGUGUCCUACCGG [Fiskers Ex 6 - 7] (puzzle: Exclusion 6) | 13.9 nM |  |  |  |  |  |
| AAUAACAGAGGAUAUACUGUUUUAUGUAUUUAUUAUUUUAAACAUGAGGAUCACCCAUGUAGAAGGCUGAUUGA [JMF 71] (puzzle: Exclusion 2) | 26.8 nM |  |  |  |  |  |
| AGUAGUUGUUUCCGUUCUUACAUGAGGAUCACCCAUGUUUCUUGUCGUGCUCGCGAUGCUCGUCAGACUACCAGAUG [salish99_TOv1_r3_059] (puzzle: Sensor v3, turn-off variant 1) | 65.7 nM |  |  |  | 53.4 nM | 72.8 nM |
| UAUUACCUAGGAUAUACAUGAGGAUCACCCAUGUCACGGGUCAACUUGUCCUAUGCGUGUAGAAGGAGGGACCC [JL Ceriza mod 6] (Eterna round: R96, puzzle: Exclusion 3) |  | 25 nM | 25.4 nM | 16.5 nM |  |  |
| AAGAAACAUGAGGAUCACCCAUGUGAGGAUAUGAAAAAGAAAAGAAAAGAAAGAAGCUUCAGAAGGCACAAAGG [salish99-ex1_r3_030] (puzzle: Exclusion 1) | 27.5 nM |  |  |  | 38 nM | 39.4 nM |
| UGUGCGUAUGUGAGGAUAUGCUGGUCCUUGGAUCGGCAGAAGGCACAUGAGGAUCACCCAUGUGGUGUCGUACC [salish99_Bmod_ex4_075] (puzzle: Brourd's mod of Exclusion 4) | 154 nM |  |  |  |  |  |
